Assays:
[1] = target: T1, 5HT2B expressing cells (Homo sapiens, UniProt P41595); assay: Flow cytometry selectivity versus 5HT2B; type: binding
T1 construct: expressed in transfected cells
Experimental: (§1) To further assess TRex CHO parental cells, TRex CHO A56 overexpressed CB1, Native human CB1 TRex CHO A156, 5HT2B, Mouse CB1 and human CB2 were used to examine the specificity of IgG binding. 100 μl of 1×10^6 cells/ml of cells were incubated with primary antibody IgGs in 3-fold serial dilutions starting from 1 μM to 0.5 nM for 30 minutes on ice. After being washed with 200 μl of FACS buffer twice, cells were incubated with secondary antibody for 30 minutes on ice. Cells were washed with 200 μl of FACS buffer twice and transferred to BD Falcon 5 ml tube and analyzed by FACS.
(§2) Santa Cruz anti-CB1 rabbit polyclonal antibody and secondary antibody FITC conjugated anti-rabbit were used to detect the expression of mouse CB1. R&D mouse monoclonal anti-CB2 and human IgG P2C2 were used to confirm the expression of CB2 and 5HT2B respectively. Both anti-mouse and anti-human secondary antibodies were PE-conjugated.
(§3) For selected binders, full binding curves were generated on CB1 receptor by testing a range of concentrations. Three-fold serial dilutions from 1 μM to […] were prepared. Selectivity was determined by measuring binding to cells expressing 5HT2B or CB2, relative to binding to A156 (native human CB1 receptor expressing) or A56 (overexpressed—CB1 receptor with the T210A modification and ICL3 replacement with fusion partner) by flow cytometry. As shown in FIG. 2C and FIG. 2D, the expression of CB2 and 5HT2B was confirmed using mouse monoclonal anti-CB2 and P2C2 human IgG to confirm CB2 and 5HT2B expression, respectively. PE-conjugated anti-mouse (for detection of anti-CB2) and PE conjugated anti-human antibodies were used to detect CB2 and 5HT2B, respectively.

[2] = target: T2, TRex CHO A156 Native human CB1 cells (Homo sapiens, UniProt P21554); assay: Competition assay by FACS; type: binding; conditions: excess competitor; staining IgG at EC80 and EC50
T2 construct: pcDNA4/TO native full length human CB1 receptor construct was transfected into tetracycline inducible system Trex-CHO cells; expressed in transfected cells
Experimental: TRex CHO A156 Native human CB1 cells were used to test whether 36E12B6C2 and P1C4 bind to similar epitopes. Concentrations at EC80 and EC50 of P1C4 and 36E12B6C2 were used for staining. Excess of PA13R3-P1C4 IgG, Fab and 36E12B6C2 were used for competition. 100 μl of 1×10^6 cells/ml of A156 cells were incubated with competitor IgGs for 30 minutes on ice and then staining IgGs were added into the mixture with 30 minutes incubation on ice. After being washed with 200 μl of FACS buffer twice, cells were incubated with secondary antibody for 30 minutes on ice. PE conjugated anti-human and anti-mouse was diluted in 1:200 folds. Cells were washed with 200 μl of FACS buffer twice and transferred to BD Falcon 5 ml tube and analyzed by FACS.

[3] = system: TRex CHO parental cells (no CB1); assay: Flow cytometry (FACS) binding to parental cells
Experimental: TRex CHO parental cells, TRex CHO A56 over-expressed CB1 (CB1 T210A/fusion partner), and Native human CB1 TRex CHO A156 were harvested from flasks. 100 μl of 1×10^6 cells/ml of cells were incubated with primary antibody IgGs. Secondary Antibody PE conjugated anti-human and anti-mouse was diluted in 1:200 folds. Anti-Human Fab FITC was diluted in 1:32 folds. Cells were washed with 200 μl of FACS buffer twice and transferred to BD 5 ml Falcon tube and analyzed by flow cytometry. Binding of purified IgG was initially tested at concentrations of 30 nM and 300 nM.
as §1
(§4) The binding affinity, cross-reactivity and specificity of humanized P1C4 antibodies were determined by flow cytometry with TRex CHO parental cells, TRex CHO A56 overexpressed CB1 cells (T210A/fusion partner), native human CB1 TRex CHO A156 cells, Trex parental (no CB1) cells, mouse CB1 cells, and human CB2 stable cells. […] After being washed with 200 μl of FACS buffer twice, cells were incubated with PE conjugated anti-human secondary antibody (Southern Biotech) for 30 minutes on ice. Cells were washed with 200 μl of FACS buffer twice and transferred to BD Falcon 5 ml tube and analyzed by flow cytometry (BD FACScalibur).
The binding affinity of PA13R3-P1C4 humanized variants was determined by flow cytometry using TRex CHO cells stably transfected with the CB1. TRex CHO parental cells, and TRex-CHO cells stably transfected with tetracycline inducible human CB1, human CB2 or mouse CB1 expression constructs were harvested. To determine binding of test antibodies, one hundred microliters of 1×10^6 cells/mL of cells were incubated with test antibodies with a range of concentrations between 1 μM and 1.3 nM for 30 minutes on ice. Cells were then centrifuged at 4° C. at 1600 rpm for 3 minutes; supernatant was aspirated and cells were washed with 200 μL FACS buffer. The washing procedure was repeated twice. […] Cells were washed with 200 μL FACS buffer twice and analyzed by flow cytometry (Guava). […] The mean dissociation constant (KD) of PA13R3-P1C4 humanized variants was determined by averaging at least 4 different experiments using at least 2 different batches of protein (FIG. 20A-D and Table 16).

[4] = target: T3, human CB2 (TRex CHO cells) (Homo sapiens, UniProt P34972); assay: Flow cytometry selectivity versus human CB2; type: binding
T3 construct: expressed in transfected cells
Experimental: as §1, §2, §3, §4
Binding selectivity and cross-reactivity of PA13R3-P1C4 and its humanized variants was also characterized by flow cytometry using TRex CHO cells stably transfected with the GPCRs of interest. Specifically, binding selectivity for CB1 over CB2 was determined. Cross reactivity to mouse CB1 was also determined. […] Cells were washed with 200 μL FACS buffer twice and analyzed by flow cytometry (Guava). Binding of purified IgG full concentration curves ranging from 1 μM to 1.3 nM was determined. […]

T1 sequence (P41595 whole entry): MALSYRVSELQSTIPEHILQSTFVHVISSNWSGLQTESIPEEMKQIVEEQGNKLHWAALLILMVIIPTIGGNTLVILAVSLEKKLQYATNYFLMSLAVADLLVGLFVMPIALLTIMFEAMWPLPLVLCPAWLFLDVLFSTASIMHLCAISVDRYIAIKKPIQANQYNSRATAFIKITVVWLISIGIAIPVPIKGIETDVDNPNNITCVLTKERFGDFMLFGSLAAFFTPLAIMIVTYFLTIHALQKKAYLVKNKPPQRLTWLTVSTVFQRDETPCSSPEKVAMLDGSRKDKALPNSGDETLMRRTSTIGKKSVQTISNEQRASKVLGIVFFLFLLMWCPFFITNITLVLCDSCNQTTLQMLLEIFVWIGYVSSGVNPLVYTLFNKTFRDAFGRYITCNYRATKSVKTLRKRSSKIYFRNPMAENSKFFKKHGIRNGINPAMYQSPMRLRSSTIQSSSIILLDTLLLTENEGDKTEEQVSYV
T2 sequence (P21554 whole entry): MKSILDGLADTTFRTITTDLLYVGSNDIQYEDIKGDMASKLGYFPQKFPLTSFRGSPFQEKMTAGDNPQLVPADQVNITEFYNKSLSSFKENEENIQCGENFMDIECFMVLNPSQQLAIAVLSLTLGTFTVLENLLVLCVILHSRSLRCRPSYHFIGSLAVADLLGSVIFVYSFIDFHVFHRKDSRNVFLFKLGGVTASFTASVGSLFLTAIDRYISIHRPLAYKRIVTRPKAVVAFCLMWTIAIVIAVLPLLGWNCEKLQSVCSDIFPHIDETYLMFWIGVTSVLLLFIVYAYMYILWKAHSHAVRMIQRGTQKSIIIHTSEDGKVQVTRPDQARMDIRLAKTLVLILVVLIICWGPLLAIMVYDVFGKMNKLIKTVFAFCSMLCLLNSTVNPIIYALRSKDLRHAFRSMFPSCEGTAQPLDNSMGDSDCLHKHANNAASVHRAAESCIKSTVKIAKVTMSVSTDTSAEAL
T3 sequence (P34972 whole entry): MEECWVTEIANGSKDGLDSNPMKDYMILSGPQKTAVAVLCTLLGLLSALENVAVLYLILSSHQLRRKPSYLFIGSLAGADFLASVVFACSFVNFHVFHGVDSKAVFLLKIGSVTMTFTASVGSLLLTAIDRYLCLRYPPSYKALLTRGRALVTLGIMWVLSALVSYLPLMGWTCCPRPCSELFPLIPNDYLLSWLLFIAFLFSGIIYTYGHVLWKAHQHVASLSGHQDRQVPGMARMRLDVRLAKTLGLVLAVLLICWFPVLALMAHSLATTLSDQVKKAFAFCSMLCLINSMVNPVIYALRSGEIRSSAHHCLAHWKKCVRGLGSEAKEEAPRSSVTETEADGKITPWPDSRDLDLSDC

B1: PA13R3-P1C4: phage-derived chimeric anti-CB1 IgG; HC variable SEQ ID NO: 2, LC variable SEQ ID NO: 6 (antibody, V domains shown)
VH: EVQLQQSGAELVRPGVSVKISCKASGYEFSYYWMNWVKQRPGQGLEWIGQIYPGDGETKYNGKFKGKATLTADKSSNTAYMQLSSLTSEDSAVYFCARSHGNYLPYWGQGTLVTVSA
VL: DIVLTQSPAIMSASLGERVTMTCTASSSVSSSYLHWYQQKPGSSPKLWIYSTSNLASGVPARFSGSGSGTSYSLTISSMEAEDAATYYCHQYHRSPPTFGAGTKLELK
modifications: PA13R3-P1C4 Heavy chain variable region; PA13R3-P1C4 Light chain variable region
[1]
  cross-activity with 5ht2b: do not have cross-activity
[2]
  competition for CB1 binding: competed with 36E12B6C2
[3]
  binding to parental TRex CHO (in words): not parental TRex CHO
[3]; Table 10
  Kd TRexCHO parental: No binding
[4]
  cross-activity with human CB2: do not have cross-activity
[4]; Table 10
  Kd TRexCHO Human CB2: No binding

B2: PA13R3-P1C4 Fab: Fab fragment of chimeric PA13R3-P1C4 (antibody, V domains shown)
VH: B1 VH
VL: B1 VL
[1]
  cross-activity with 5ht2b: do not have cross-activity
[2]
  competition for CB1 binding: competed with 36E12B6C2
[3]
  binding to parental TRex CHO (in words): not parental TRex CHO
[4]
  cross-activity with human CB2: do not have cross-activity

B3: 36E12B6C2: hybridoma-derived anti-CB1 mAb; HC variable SEQ ID NO: 18, LC variable SEQ ID NO: 22 (antibody, listed as Mus sp., V domains shown)
VH: QVQLQQSGAELVRPGSSVKISCKASGYEFSYYWMNWVKQRPGQGLQWIGQIYPGDGDTNYNGKFKGKATLTADKSSSTAYMHLTSLTSEDSAVYFCARSGGNPFAFWGQGTLVTVSA
VL: DIQMTQTSSSLSASLGDRVTFSCRASQDISNYLNWYQQKPDGTVKLLIYYTSRLHSGVTSRFRGSGSGTDYSLTISNLEQEDVATYFCQQGHTLPWSFGGGTKLEIK
[1]
  cross-activity with 5ht2b: do not have cross-activity
[2]
  competition for CB1 binding: could also compete with PA13R3-P1C4
[3]
  binding to parental TRex CHO (in words): not parental TRex CHO
[4]
  cross-activity with human CB2: do not have cross-activity
